Assay [1] concerns the target T1, HLA-A*02:01 (Homo sapiens, UniProt P04439, D140Y/D185E/D98H/E176V/E277Q/G131W/G231S/I119V/I121R/I166T/I218V/L300P/L318F/N151K/N90K/P208A/P217A/Q86G/Q94H/R138H/R169H/T345S/Y108C).
T1 construct: made in house
As to the kind of experiment: Secreted single-chain trimer (SCT) quantification assay. The source says: Peptide-MHC I complexes processed by endogenous machinery might show different stability compared to exogenous peptide pulsing (such as in T2 binding assays). This can be the result of post-translational modifications (PTMs). A recently developed technique, secreted single-chain trimer (SCT), was used to evaluate relative stability of pMHC of interest (36). In the secreted SCT construct, MHC I heavy chain (HLA-A*02:01 alpha chain with H74L and Y84C mutation), light chain (beta-microglobulin), and corresponding peptide were tethered by linkers as one single chain molecule (FIG. 3a). Constructs were expressed in cells and released into culture supernatant. Only peptides favored by HLA-A*02:01 are expected to generate a stable SCT and have higher yields. The quantity of SCTs was measured by band intensity on SDS-PAGE and normalized against a well-known WT1 cancer epitope that is restricted on HLA-A*02:01 ([…]) (FIG. 3b) (37, 38).
SCT quantification assay: SCT constructs (mutant H74L/Y84C) with individual PAP peptides were synthesized according to the previously published protocol (36).

The target in assay [2] is HLA-A*02:01 (Homo sapiens, UniProt P04439, D140Y/D185E/D98H/E176V/E277Q/G131W/G231S/I119V/I121R/I166T/I218V/L300P/L318F/N151K/N90K/P208A/P217A/Q86G/Q94H/R138H/R169H/T345S). As to the kind of experiment: T2 peptide binding (stabilization) assay. The following applies: peptides exogenously pulsed on T2 cells; anti-HLA-A2 FITC (BB7.2), FACS. It counts as cell-based.
The conditions of assay [3]: men with metastatic castration-resistant prostate cancer; cited from earlier work.
In the next assay the target is T2, PAP (Homo sapiens, UniProt P15309).
T2 sequence (P15309 33-386): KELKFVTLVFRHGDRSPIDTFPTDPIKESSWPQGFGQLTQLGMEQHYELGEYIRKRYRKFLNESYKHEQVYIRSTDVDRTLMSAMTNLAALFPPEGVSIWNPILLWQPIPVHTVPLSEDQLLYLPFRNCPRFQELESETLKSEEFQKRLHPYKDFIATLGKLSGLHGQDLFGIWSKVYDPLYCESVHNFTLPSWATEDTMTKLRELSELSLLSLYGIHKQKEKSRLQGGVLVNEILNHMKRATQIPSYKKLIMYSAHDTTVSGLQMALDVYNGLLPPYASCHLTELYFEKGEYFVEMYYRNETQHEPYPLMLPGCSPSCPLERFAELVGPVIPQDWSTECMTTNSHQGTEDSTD
As to conditions: positive response SI>5 at week 6 post immunization; cited from earlier work.

For a further assay, the system named is PAP+ target cells. The following applies: video evidence; cited from earlier work.
Assay [4] deals with T3, prostatic acid phosphatase (PAP); peptide PAP_A2_14 peptide on HLA-A*02:01 (human).
T3 peptide: ILLWQPIPV
As to the kind of experiment: multimer staining.

For assay [5], the target named is T4, HLA-A*02:01 on T2 cells (human).
T4 construct: also called HLA-A2; A2
As to the kind of experiment: T2 stabilization assay, HLA-A2 on T2 cells by anti-A2 (BB7.2) FITC flow cytometry. On the technique in general: Flow cytometry measures light scatter and fluorescence of single cells or particles in a stream.

Assay [6] addresses T5, prostatic acid phosphatase (PAP); peptide PAP_A2_25 peptide on HLA-A*02:01 (human).
T5 peptide: IMYSAHDTTV
As to the kind of experiment: cytokine release.

Assay [7] has as its target T4, HLA-A*02:01 on T2 cells. As to the kind of experiment: T2 binding assay, HLA-A2 on T2 cells by anti-A2 (BB7.2) FITC flow cytometry.
Assay [8] concerns the target T6, prostatic acid phosphatase (PAP); peptide PAP_A2_21 peptide on HLA-A*02:01 (human).
T6 peptide: LLLARAASLSL
As to the kind of experiment: activation reporter or marker.

Take “SVHNFTLPSW (listed as Homo sapiens) [PAP-A2-24]”: the “affinity toward HLA-A*02:01 after glycosylation” value with HLA-A*02:01 [1] (N-glycosylated peptide in SCT) was “altered affinity”. Also, in the assay with HLA-A*02:01 [1] (band intensity on SDS-PAGE, cutoff 0.2 for relatively high stability), the “SCT yield normalized to control WT1 epitope (RMFPNAPYL)” value is 1.40. As for “ILLWQPIPV (listed as Homo sapiens) [PAP-A2-14]”, the “HLA-A2 signal in T2 assay (slope of natural log of A2 fluorescent intensity vs diluted peptide concentration)” value with HLA-A*02:01 [2] was “Positive”. For sipuleucel-T, in assay [3], the “median improvement in overall survival” value is on record as 4.1 months. Moreover, at PAP, the “patients displaying T cell proliferation responses to PAP” value is 27.2%. For the same molecule, the “lysis of PAP+ target cells by T cells from treated patients” value in the assay with PAP+ target cells is recorded as “capable of lysing”. Take “LLLARAASLSL (listed as Homo sapiens) [PAP-A2-21]”: the “HLA-A2 signal in T2 assay (slope of natural log of A2 fluorescent intensity vs diluted peptide concentration)” value with HLA-A*02:01 [2] is given as “Positive”. Take “IMYSAHDTTV (listed as Homo sapiens) [PAP-A2-25]”: the “HLA-A2 signal in T2 assay (slope of natural log of A2 fluorescent intensity vs diluted peptide concentration)” value with HLA-A*02:01 [2] is given as “Positive”. “KVYDPLYCESV (listed as Homo sapiens) [PAP-A2-20]”: the “HLA-A2 signal in T2 assay (slope of natural log of A2 fluorescent intensity vs diluted peptide concentration)” value in the assay with HLA-A*02:01 [2] is given as “Positive”.

B1: PAP-TCR-204 (TCR, V domains shown)
Valpha: AQSVTQPDIHITVSEGASLELRCNYSYGATPYLFWYVQSPGQGLQLLLKYFSGDTLVQGIKGFEAEFKRSQSSFNLRKPSVHWSDAAEYFCAVGAGDYKLSFGAGTTVTVRA
Vbeta: ETGVTQTPRHLVMGMTNKKSLKCEQHLGHNAMYWYKQSAKKPLELMFVYSLEERVENNSVPSRFSPECPNSSHLFLHLHTLQPEDSALYLCASSQTTGQPQHFGDGTRLSIL
Consider B1, for which, in assay [4], the binding result is “recognises”. As for LLLARAASLSL (also called PAP-21) [PAP-A2-21 peptide LLLARAASLSL], the binding result with HLA-A*02:01 on T2 cells [5] is “binds”.

B2: PAP-TCR-213 (TCR, V domains shown)
Valpha: TQLLEQSPQFLSIQEGENLTVYCNSSSVFSSLQWYRQEPGEGPVLLVTVVTGGEVKKLKRLTFQFGDARKDSSLHITAAQPGDTGLYLCAGAPETSGSRLTFGEGTQLTVNP
Vbeta: GAGVSQTPSNKVTEKGKYVELRCDPISGHTALYWYRQSLGQGPEFLIYFQGTGAADDSGLPNDRFFAVRPEGSVSTLKIQRTERGDSAVYLCASSFGGGSSPLHFGNGTRLTVT
In the case of B2, the binding result in assay [6] was “recognises”. With TLMSAMTNL [PAP-A2-22 peptide TLMSAMTNL], in the assay with HLA-A*02:01 on T2 cells [7], the binding result was “binds”.

B3: PAP-TCR-175 (TCR, V domains shown)
Valpha: ILNVEQSPQSLHVQEGDSTNFTCSFPSSNFYALHWYRWETAKSPEALFVMTLNGDEKKKGRISATLNTKEGYSYLYIKGSQPEDSATYLCAFEDSGYSTLTFGKGTMLLVSP
Vbeta: DAGITQSPRYKITETGRQVTLMCHQTWSHSYMFWYRQDLGHGLRLIYYSAAADITDKGEVPDGYVVSRSKTENFPLTLESATRSQTSVYFCASGGLAGVDEQYFGPGTRLTVT
Consider B3, for which the binding result in assay [8] is recorded as “recognises”. Take KVYDPLYCESV [PAP-A2-20 peptide KVYDPLYCESV]: the binding result in the assay with HLA-A*02:01 on T2 cells [5] is “binds”.

B4: PAP-TCR-225 (TCR, V domains shown)
Valpha: DQQVKQNSPSLSVQEGRISILNCDYTNSMFDYFLWYKKYPAEGPTFLISISSIKDKNEDGRFTVFLNKSAKHLSLHIVPSQPGDSAVYFCAASVDEKLTFGTGTRLTIIP
Vbeta: DTGVSQNPRHKITKRGQNVTFRCDPISEHNRLYWYRQTLGQGPEFLTYFQNEAQLEKSRLLSDRFSAERPKGSFSTLEIQRTEQGDSAMYLCASSLQVEQFFGPGTRLTVL
B4: the binding result in assay [8] was “recognises”.

The record behind these values is patent US20250161357A1, “HUMAN T CELL RECEPTOR PAIRS REACTIVE WITH HLA-A*02:01 RESTRICTED HUMAN PROSTATIC ACID PHOSPHATASE (PAP) EPITOPES” (The Regents of the University of California, priority 2022, published 2025).
